B8: γCAL domain of M58 (residues 1-198) (domain or fragment, Synechococcus elongatus PCC 7942, UniProt Q03513 1-198, looked up)
chain: MPSPTTVPVATAGRLAEPYIDPAAQVHAIASIIGDVRIAAGVRVAAGVSIRADEGAPFQVGKESILQEGAVIHGLEYGRVLGDDQADYSVWIGQRVAITHKALIHGPAYLGDDCFVGFRSTVFNARVGAGSVIMMHALVQDVEIPPGRYVPSGAIITTQQQADRLPEVRPEDREFARHIIGSPPVIVRSTPAATADFH
notes: also called γCAL198; source: E. coli BL21 (DE3), purified (Ni-NTA, H6Ub cleaved, SEC); not shown: His6-ubiquitin, N-terminal, cleaved

The target of data set [1] is SeM58-R298D (Synechococcus elongatus PCC 7942) (UniProt Q03513). Briefly: SEC-MALS; 2 mg/ml protein; 50 mM Tris-HCl pH 8.0/150 mM KCl or 50 mM Tris-HCl pH 8.0/500 mM KCl/5 mM DTT; 25 °C; oligomeric state in solution. Background: SEC sorts molecules by how far they enter the pores of the column.
For data set [2], the target named is SeM58-R481D (Synechococcus elongatus PCC 7942) (UniProt Q03513). Described as above.
For data set [3], the target named is SeM58-R367D (Synechococcus elongatus PCC 7942) (UniProt Q03513). Described as above.
The target in data set [4] is SeM58-R252D (Synechococcus elongatus PCC 7942) (UniProt Q03513). The description is as above.
Data set [5] concerns the target SeM58-R251D (Synechococcus elongatus PCC 7942) (UniProt Q03513). The data set is described as above.
Data set [6] deals with the molecule itself. The data set is described as above.
Data set [7] deals with B8. The data set is described as follows: ITC; EGFPC2_(17) (365 μM) in the syringe titrated into γCAL(1–198) (14 μM); 20 °C; 50 mM Tris pH 8.0/100 mM KCl/10 mM Mg(OAc)2; one-site binding model. The conditions noted are these: both partners purified. For orientation: Isothermal titration calorimetry measures the heat released or taken up as one component is titrated into another.

One may read the stoichiometry N as a count of units in the complex or per binding partner. One may read the Kd as the free concentration of one partner at which half of the binding sites on the other are occupied at equilibrium, for simple one-to-one binding.

Consider “SeM58-R298D (from UniProt Q03513 1-539) (natural protein)”, for which the stoichiometry N in data set [1] is 3.
As to “SeM58-R481D (from UniProt Q03513 1-539) (natural protein)”, the stoichiometry N in data set [2] came out at 3.
Regarding “SeM58-R367D (from UniProt Q03513 1-539) (natural protein)”, the stoichiometry N in data set [3] was 3.
In the case of “SeM58-R252D (from UniProt Q03513 1-539) (natural protein)”, the stoichiometry N in data set [4] amounted to 3.
In the case of “SeM58-R251D (from UniProt Q03513 1-539) (natural protein)”, in data set [5], the stoichiometry N came to 3.

B1: SeM58-E303K (natural protein, Synechococcus elongatus PCC 7942, UniProt Q03513 1-539, looked up)
chain: MPSPTTVPVATAGRLAEPYIDPAAQVHAIASIIGDVRIAAGVRVAAGVSIRADEGAPFQVGKESILQEGAVIHGLEYGRVLGDDQADYSVWIGQRVAITHKALIHGPAYLGDDCFVGFRSTVFNARVGAGSVIMMHALVQDVEIPPGRYVPSGAIITTQQQADRLPEVRPEDREFARHIIGSPPVIVRSTPAATADFHSTPTPSPLRPSSSEATTVSAYNGQGRLSSEVITQVRSLLNQGYRIGTEHADKRRFRTSSWQPCAPIQSTNERQVLSELENCLSEHEGEYVRLLGIDTNTRSRVFKALIQRPDGSVPESLGSQPVAVASGGGRQSSYASVSGNLSAEVVNKVRNLLAQGYRIGTEHADKRRFRTSSWQSCAPIQSSNERQVLAELENCLSEHEGEYVRLLGIDTASRSRVFEALIQDPQGPVGSAKAAAAPVSSATPSSHSYTSNGSSSSDVAGQVRGLLAQGYRISAEVADKRRFQTSSWQSLPALSGQSEATVLPALESILQEHKGKYVRLIGIDPAARRRVAELLIQKP
notes: CcmM (M58), Synechococcus elongatus PCC 7942, point mutant in SSUL1; source: E. coli BL21 (DE3), purified as wild-type M58; not shown: His6-ubiquitin, N-terminal, cleaved
In the case of B1, the “stoichiometry N” value in data set [6] was 3.

B2: SeM58-D21K (natural protein, Synechococcus elongatus PCC 7942, UniProt Q03513 1-539, looked up)
chain: MPSPTTVPVATAGRLAEPYIKPAAQVHAIASIIGDVRIAAGVRVAAGVSIRADEGAPFQVGKESILQEGAVIHGLEYGRVLGDDQADYSVWIGQRVAITHKALIHGPAYLGDDCFVGFRSTVFNARVGAGSVIMMHALVQDVEIPPGRYVPSGAIITTQQQADRLPEVRPEDREFARHIIGSPPVIVRSTPAATADFHSTPTPSPLRPSSSEATTVSAYNGQGRLSSEVITQVRSLLNQGYRIGTEHADKRRFRTSSWQPCAPIQSTNERQVLSELENCLSEHEGEYVRLLGIDTNTRSRVFEALIQRPDGSVPESLGSQPVAVASGGGRQSSYASVSGNLSAEVVNKVRNLLAQGYRIGTEHADKRRFRTSSWQSCAPIQSSNERQVLAELENCLSEHEGEYVRLLGIDTASRSRVFEALIQDPQGPVGSAKAAAAPVSSATPSSHSYTSNGSSSSDVAGQVRGLLAQGYRISAEVADKRRFQTSSWQSLPALSGQSEATVLPALESILQEHKGKYVRLIGIDPAARRRVAELLIQKP
notes: CcmM (M58), Synechococcus elongatus PCC 7942, point mutant in the γCAL domain; source: E. coli BL21 (DE3), purified as wild-type M58; not shown: His6-ubiquitin, N-terminal, cleaved
With B2, the “stoichiometry N” value in data set [6] was 3.

B3: SeM58-R37D (natural protein, Synechococcus elongatus PCC 7942, UniProt Q03513 1-539, looked up)
chain: MPSPTTVPVATAGRLAEPYIDPAAQVHAIASIIGDVDIAAGVRVAAGVSIRADEGAPFQVGKESILQEGAVIHGLEYGRVLGDDQADYSVWIGQRVAITHKALIHGPAYLGDDCFVGFRSTVFNARVGAGSVIMMHALVQDVEIPPGRYVPSGAIITTQQQADRLPEVRPEDREFARHIIGSPPVIVRSTPAATADFHSTPTPSPLRPSSSEATTVSAYNGQGRLSSEVITQVRSLLNQGYRIGTEHADKRRFRTSSWQPCAPIQSTNERQVLSELENCLSEHEGEYVRLLGIDTNTRSRVFEALIQRPDGSVPESLGSQPVAVASGGGRQSSYASVSGNLSAEVVNKVRNLLAQGYRIGTEHADKRRFRTSSWQSCAPIQSSNERQVLAELENCLSEHEGEYVRLLGIDTASRSRVFEALIQDPQGPVGSAKAAAAPVSSATPSSHSYTSNGSSSSDVAGQVRGLLAQGYRISAEVADKRRFQTSSWQSLPALSGQSEATVLPALESILQEHKGKYVRLIGIDPAARRRVAELLIQKP
notes: as for B2
For B3, the “stoichiometry N” value in data set [6] was determined as 3.

B4: SeM58-E17K (natural protein, Synechococcus elongatus PCC 7942, UniProt Q03513 1-539, looked up)
chain: MPSPTTVPVATAGRLAKPYIDPAAQVHAIASIIGDVRIAAGVRVAAGVSIRADEGAPFQVGKESILQEGAVIHGLEYGRVLGDDQADYSVWIGQRVAITHKALIHGPAYLGDDCFVGFRSTVFNARVGAGSVIMMHALVQDVEIPPGRYVPSGAIITTQQQADRLPEVRPEDREFARHIIGSPPVIVRSTPAATADFHSTPTPSPLRPSSSEATTVSAYNGQGRLSSEVITQVRSLLNQGYRIGTEHADKRRFRTSSWQPCAPIQSTNERQVLSELENCLSEHEGEYVRLLGIDTNTRSRVFEALIQRPDGSVPESLGSQPVAVASGGGRQSSYASVSGNLSAEVVNKVRNLLAQGYRIGTEHADKRRFRTSSWQSCAPIQSSNERQVLAELENCLSEHEGEYVRLLGIDTASRSRVFEALIQDPQGPVGSAKAAAAPVSSATPSSHSYTSNGSSSSDVAGQVRGLLAQGYRISAEVADKRRFQTSSWQSLPALSGQSEATVLPALESILQEHKGKYVRLIGIDPAARRRVAELLIQKP
notes: as for B2
Consider B4, for which the “stoichiometry N” value in data set [6] turned out to be 3.

B5: SeM58-D35K (natural protein, Synechococcus elongatus PCC 7942, UniProt Q03513 1-539, looked up)
chain: MPSPTTVPVATAGRLAEPYIDPAAQVHAIASIIGKVRIAAGVRVAAGVSIRADEGAPFQVGKESILQEGAVIHGLEYGRVLGDDQADYSVWIGQRVAITHKALIHGPAYLGDDCFVGFRSTVFNARVGAGSVIMMHALVQDVEIPPGRYVPSGAIITTQQQADRLPEVRPEDREFARHIIGSPPVIVRSTPAATADFHSTPTPSPLRPSSSEATTVSAYNGQGRLSSEVITQVRSLLNQGYRIGTEHADKRRFRTSSWQPCAPIQSTNERQVLSELENCLSEHEGEYVRLLGIDTNTRSRVFEALIQRPDGSVPESLGSQPVAVASGGGRQSSYASVSGNLSAEVVNKVRNLLAQGYRIGTEHADKRRFRTSSWQSCAPIQSSNERQVLAELENCLSEHEGEYVRLLGIDTASRSRVFEALIQDPQGPVGSAKAAAAPVSSATPSSHSYTSNGSSSSDVAGQVRGLLAQGYRISAEVADKRRFQTSSWQSLPALSGQSEATVLPALESILQEHKGKYVRLIGIDPAARRRVAELLIQKP
notes: as for B2
With B5, in data set [6], the “stoichiometry N” value stood at 3.

B6: SeM58-R43D (natural protein, Synechococcus elongatus PCC 7942, UniProt Q03513 1-539, looked up)
chain: MPSPTTVPVATAGRLAEPYIDPAAQVHAIASIIGDVRIAAGVDVAAGVSIRADEGAPFQVGKESILQEGAVIHGLEYGRVLGDDQADYSVWIGQRVAITHKALIHGPAYLGDDCFVGFRSTVFNARVGAGSVIMMHALVQDVEIPPGRYVPSGAIITTQQQADRLPEVRPEDREFARHIIGSPPVIVRSTPAATADFHSTPTPSPLRPSSSEATTVSAYNGQGRLSSEVITQVRSLLNQGYRIGTEHADKRRFRTSSWQPCAPIQSTNERQVLSELENCLSEHEGEYVRLLGIDTNTRSRVFEALIQRPDGSVPESLGSQPVAVASGGGRQSSYASVSGNLSAEVVNKVRNLLAQGYRIGTEHADKRRFRTSSWQSCAPIQSSNERQVLAELENCLSEHEGEYVRLLGIDTASRSRVFEALIQDPQGPVGSAKAAAAPVSSATPSSHSYTSNGSSSSDVAGQVRGLLAQGYRISAEVADKRRFQTSSWQSLPALSGQSEATVLPALESILQEHKGKYVRLIGIDPAARRRVAELLIQKP
notes: as for B2
In the case of B6, in data set [6], the “stoichiometry N” value is 3.

B7: EGFPC2_(17) (peptide)
chain: GWLAPEQQQRIYRGNAS
notes: the last 17 residues of CcaA, Synechococcus elongatus PCC 7942; residues 1-255 of CcaA replaced by EGFP-GSGGS; EGFP amplified from pEF-gfp (Addgene); source: E. coli BL21 (DE3), purified (Ni-NTA, H6Ub cleaved, SEC); not shown: EGFP with GSGGS linker, N-terminal, kept; His6-ubiquitin, N-terminal, cleaved
Consider B7, for which, in data set [7], the Kd was about 2 µM and the “stoichiometry N” value was about 2.7 per γCAL198 trimer.
Consider B8, for which the “stoichiometry N” value in data set [6] was 3.

B9: γCAL domain of M58 (residues 1-181) (domain or fragment, Synechococcus elongatus PCC 7942, UniProt Q03513 1-181, looked up)
chain: MPSPTTVPVATAGRLAEPYIDPAAQVHAIASIIGDVRIAAGVRVAAGVSIRADEGAPFQVGKESILQEGAVIHGLEYGRVLGDDQADYSVWIGQRVAITHKALIHGPAYLGDDCFVGFRSTVFNARVGAGSVIMMHALVQDVEIPPGRYVPSGAIITTQQQADRLPEVRPEDREFARHIIG
notes: residues 1-15 disordered in the crystals; also called γCAL181; source: E. coli BL21 (DE3), purified (Ni-NTA, H6Ub cleaved, SEC); not shown: His6-ubiquitin, N-terminal, cleaved
As for B9, the “stoichiometry N” value in data set [6] turned out to be 3.

For the origin of these results see article PMC8580825, “Scaffolding protein CcmM directs multiprotein phase separation in β-carboxysome biogenesis” (Nature Structural & Molecular Biology, 2021).
